B1: Fab antibody Ab17 (Fab, V domains shown)
VH: EVQLLESGGGLVQPGGSLRLSCAASGFTFSNYTMIWVRQAPGKGLEWVSRIWPSGGGTDYADSVKGRFTISRDNSKNTLYLQMNSLRAEDTATYYCARRVGASRYFDLWGRGTLVTVSS
VL: DIQMTQSPSSLSASVGDRVTVTCRASQNIDNYLNWYQQRPGKAPELLIYAASSLQSGVPSRFSGSGSGTDFTLTISSLQPEDFATYYCQQSYSNSRTFGQGTKVEIK
notes: Fab from a phage library
B2: Fab antibody Ab3 (Fab, V domains shown)
VH: EVQLLESGGGLVQPGGSLRLSCAASGFTFSPYNMMWVRQAPGKGLEWVSRISPSGGDTHYADSVKGRFTISRDNSKNTLYLQMNSLRAEDTAVYYCARGSRSSWSTPYYWGQGILVTVSS
VL: QSALTQPPSASGTPGQRVTISCSGSSSNIGNNYVYWYQQLPGTAPKLLIYRSNQRPSGVPDRFSGSKSGASASLAISGLRSEDEADYYCAAWDDSLIGPVFGGGTKLTVL
notes: Fab from a phage library
B3: Fab antibody Ab2 (Fab, V domains shown)
VH: EVQLLESGGGLVQPGGSLRLSCAASGFTFSNYKMGWVRQAPGKGLEWVSWIYPSGGGTFQADSVKGRFTISRDNSKNTLYLQMNSLRAEDTAVYYCARVRVGSTGNFDYWGQGTLVTVSS
VL: DIQMTQSPATLSLSPGERATLYCRASQSVSNYVAWYQQRPGQAPRLLMYDTSKRATGIPARFSGSGSGTDFTLTISSLEPEDFAVYYCQQRSYWFAFGGGTKVEIK
notes: Fab from a phage library
B4: Fab antibody Ab13 (Fab, V domains shown)
VH: EVQLLESGGGLVQPGGSLRLSCAASGFTFSNYTMHWVRQAPGKGLEWVSVIYPSGGMTKYADSVKGRFTISRDNSKNTLYLQMNSLRAEDTAVYYCARGSTTFDYWGQGTLVTVSS
VL: DIQMTQSPGTLSLSPGERATLSCRASQSVRSNYLAWYQQKPGQAPRLLIYGASSRATGIPDRFSGSGSGTDFTLTISRLEPEDFAVYYCQQRSNWPITFGQGTRLEIK
notes: Fab from a phage library
B5: Fab antibody Ab20 (Fab, V domains shown)
VH: EVQLLESGGGLVQPGGSLRLSCAASGFTFSRYGMAWVRQAPGKGLEWVSSIRPSGGYTAYADSVKGRFTISRDNSKNTLYLQMNSLRAEDTAVYYCARLPARFDYYYGLDVWGQGTTVTVSS
VL: DIQMTQSPATLSLSPGERATLSCRASQSVNIYLAWYQQRPGQAPRLLIYDASNRAIGVPARFSGTGSGTDFTLTISSLEPEDSAVYYCQQRDSWPPRLSFGGGTKVEIK
notes: Fab from a phage library

Molecular target: T1, recombinant D4 domain polypeptide of human KIT (V308 to K412, with His tag) (human, UniProt P10721 26-412)
T1 construct: also called D4 domain of human KIT
Assay: solid phase ELISA, D4 polypeptide coated on plate

T1 sequence (P10721 other isoform, or with tags, fused parts or gaps limits assumed): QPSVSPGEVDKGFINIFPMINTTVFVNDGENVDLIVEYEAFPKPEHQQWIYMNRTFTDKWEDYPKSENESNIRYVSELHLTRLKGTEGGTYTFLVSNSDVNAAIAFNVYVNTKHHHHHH

Does B1 bind?
Result: binds

Does B2 bind?
Result: binds

Does B3 bind?
Result: binds

Does B4 bind?
Result: binds

Does B5 bind?
Result: binds

— patent US20130011406A1 (KOLLTAN PHARMACEUTICALS, published 2013)
